T1: GST-tagged first WD40 domain of Elp1, Q06706
T1 chain: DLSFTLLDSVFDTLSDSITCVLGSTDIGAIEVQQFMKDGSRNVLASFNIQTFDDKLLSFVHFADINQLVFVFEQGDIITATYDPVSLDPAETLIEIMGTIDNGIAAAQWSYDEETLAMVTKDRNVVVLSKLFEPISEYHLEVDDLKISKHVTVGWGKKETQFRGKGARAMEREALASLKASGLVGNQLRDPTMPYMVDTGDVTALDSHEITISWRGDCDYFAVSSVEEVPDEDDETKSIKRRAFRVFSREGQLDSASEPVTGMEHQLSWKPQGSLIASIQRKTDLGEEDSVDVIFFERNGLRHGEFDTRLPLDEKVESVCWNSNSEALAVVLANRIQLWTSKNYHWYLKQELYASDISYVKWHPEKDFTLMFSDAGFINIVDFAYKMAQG


Target: T1, GST-tagged first WD40 domain of Elp1, …
Test: GST pull-down, quantified from Coomassie SDS-PAGE
Conditions: chain shown with the change;; parent: est. 1.0; read off a plot

Row | Binder | ratio to parent
1 | recombinant Kti12 (wild type), His-tagged, P34253 K225A; K228A; K235A; R281A; K283A; R284A; K291A (protein) MPLVLFTGYPCSGKTTLAKHLVQLLQSKIDATPSLSKYSITYHSDESLGIKHSDYITSQDERKLRSEIISAVKRDLSKNKIVIVDSLNYIKGFRYQLHCEVKNLSTTFCVIQTLCPPETIFEWNKTSNPNPWEPELLNQLIQRYEEPNSSNRWDSPLFAILTPQDNITDYIDDICKVVFQTSKSAKNSGHNDPLSKGLQKPNSATVLKPASQSNFIQVLDIETSAIIATIMNHIASLTSIGGVSNGTRVIVSEGITDINDDGCFFVDLPIGNVVTLAQLQALAAQFINFNALRDIDQDRIGPLFADYLNKNLN | 0.11
2 | recombinant Kti12 (wild type), His-tagged, P34253 K225A; K228A; K235A (protein) MPLVLFTGYPCSGKTTLAKHLVQLLQSKIDATPSLSKYSITYHSDESLGIKHSDYITSQDERKLRSEIISAVKRDLSKNKIVIVDSLNYIKGFRYQLHCEVKNLSTTFCVIQTLCPPETIFEWNKTSNPNPWEPELLNQLIQRYEEPNSSNRWDSPLFAILTPQDNITDYIDDICKVVFQTSKSAKNSGHNDPLSKGLQKPNSATVLKPASQSNFIQVLDIETSAIIATIMNHIASLTSIGGVSNGTRVIVSEGITDINDDGCFFVDLPIGNVVTLAQLQRLKRQFINFNKLRDIDQDRIGPLFADYLNKNLN | 0.67

From publication PMC11995267
